Source: patent US20180222987A1
Values belong to the substance of their own block, whether it stands above or below them.

What was measured:
[1] = target: Macaca fascicularis CD3ε/δ-Fc fusion heterodimer (Macaca fascicularis) (UniProt Q95LI8); assay: SPR, SP-34 used as IgG
[2] = target: human CD3ε/δ-Fc fusion heterodimer (hCD3ε/δ-hFc) (human) (UniProt P04234); assay: SPR, SP-34 used as IgG
[3] = target: Macaca fascicularis CD3ε/δ-Fc fusion heterodimer (Macaca fascicularis) (UniProt Q95LI8); assay: SPR, cyno against human CD3ε/δ
[4] = target: human CD3 (CD3ε of the TCR complex) on human T cells (human) (UniProt P07766); assay: flow cytometry, Jurkat E6-1 (w/o primary ab: 7)
[5] = target: Macaca fascicularis CD3 (TCR complex) on cyno HSC-F cells (Macaca fascicularis) (UniProt Q95LI5); assay: flow cytometry, cyno HSC-F (control row of Table 2; same value as in Table 1)
[6] = target: human CD3 (CD3ε of the TCR complex) on human T cells (human) (UniProt P07766); assay: flow cytometry, Jurkat E6-1 (w/o primary ab: 7; control row of Table 2; same value as in Table 1)
[7] = target: Macaca fascicularis CD3 (TCR complex) on cyno HSC-F cells (Macaca fascicularis) (UniProt Q95LI5); assay: flow cytometry, cyno HSC-F
[8] = target: Macaca fascicularis CD3ε/δ-Fc fusion heterodimer (Macaca fascicularis) (UniProt Q95LI8); assay: SPR Biacore, Fab-fragment
[9] = target: human CD3ε/δ-Fc fusion heterodimer (hCD3ε/δ-hFc) (human) (UniProt P04234); assay: SPR Biacore, Fab-fragment
[10] = target: recombinant huCD3ε/γ, Fc-tagged (PB01225) (human) (UniProt P07766); assay: SPR, Fc-captured CD3, 100 nM
[11] = target: Macaca fascicularis CD3ε/δ-Fc fusion heterodimer (Macaca fascicularis) (UniProt Q95LI8); assay: SPR Biacore, CODV-Fab
[12] = target: human CD3ε/δ-Fc fusion heterodimer (hCD3ε/δ-hFc) (human) (UniProt P04234); assay: SPR Biacore, CODV-Fab
[13] = target: human CD123 on cells (human) (UniProt P26951); assay: cell-based or functional assay
Sequence of human CD123 on cells (human) (P26951 19-378): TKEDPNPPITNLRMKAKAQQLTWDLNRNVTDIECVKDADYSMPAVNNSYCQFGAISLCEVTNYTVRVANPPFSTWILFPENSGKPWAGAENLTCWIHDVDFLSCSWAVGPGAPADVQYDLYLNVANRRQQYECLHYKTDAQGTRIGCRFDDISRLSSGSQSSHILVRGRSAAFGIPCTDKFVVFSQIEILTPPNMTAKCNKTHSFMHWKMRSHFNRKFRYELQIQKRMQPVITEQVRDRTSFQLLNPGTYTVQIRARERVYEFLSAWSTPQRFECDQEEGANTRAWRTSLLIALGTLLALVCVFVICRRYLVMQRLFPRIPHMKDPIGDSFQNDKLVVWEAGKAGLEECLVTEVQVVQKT

Sequence of Macaca fascicularis CD3ε/δ-Fc fusion heterodimer (Macaca fascicularis) (chain, as listed by the source mutant, chain 1 of 2): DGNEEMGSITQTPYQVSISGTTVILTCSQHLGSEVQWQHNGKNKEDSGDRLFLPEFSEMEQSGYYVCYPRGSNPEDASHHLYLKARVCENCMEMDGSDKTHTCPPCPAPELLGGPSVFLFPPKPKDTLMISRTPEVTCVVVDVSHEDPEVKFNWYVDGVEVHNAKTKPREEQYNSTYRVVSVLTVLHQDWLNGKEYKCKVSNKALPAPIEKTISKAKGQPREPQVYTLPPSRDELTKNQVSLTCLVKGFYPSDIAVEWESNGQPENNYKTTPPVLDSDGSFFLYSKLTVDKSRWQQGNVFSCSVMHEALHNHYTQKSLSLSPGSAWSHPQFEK
Sequence of Macaca fascicularis CD3ε/δ-Fc fusion heterodimer (Macaca fascicularis) (Q95LI8 22-105, stated change not applied, chain 2 of 2): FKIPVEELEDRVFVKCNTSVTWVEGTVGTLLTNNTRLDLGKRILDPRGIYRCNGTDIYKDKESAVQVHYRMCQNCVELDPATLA
Sequence of human CD3ε/δ-Fc fusion heterodimer (hCD3ε/δ-hFc) (human) (chain, as listed by the source mutant, chain 1 of 2): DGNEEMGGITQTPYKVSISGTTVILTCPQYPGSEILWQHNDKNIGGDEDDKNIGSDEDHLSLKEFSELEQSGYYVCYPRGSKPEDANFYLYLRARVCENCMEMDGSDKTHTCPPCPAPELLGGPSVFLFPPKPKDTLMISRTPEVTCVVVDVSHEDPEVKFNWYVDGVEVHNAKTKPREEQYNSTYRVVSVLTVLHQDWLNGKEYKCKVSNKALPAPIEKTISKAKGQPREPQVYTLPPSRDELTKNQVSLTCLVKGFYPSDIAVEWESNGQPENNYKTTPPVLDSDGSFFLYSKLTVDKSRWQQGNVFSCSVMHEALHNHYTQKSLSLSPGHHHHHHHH
Sequence of human CD3ε/δ-Fc fusion heterodimer (hCD3ε/δ-hFc) (human) (P04234 22-105, stated change not applied, chain 2 of 2): as the sequence (Q95LI8 22-105, stated change not applied, chain 2 of 2) above, with V5I, K15N, V20I, T32S, N33D, N34I, A64T, N74S, L83V counted along it
Sequence of Macaca fascicularis CD3 (TCR complex) on cyno HSC-F cells (Macaca fascicularis) (Q95LI5 22-198 limits assumed, one chain of several): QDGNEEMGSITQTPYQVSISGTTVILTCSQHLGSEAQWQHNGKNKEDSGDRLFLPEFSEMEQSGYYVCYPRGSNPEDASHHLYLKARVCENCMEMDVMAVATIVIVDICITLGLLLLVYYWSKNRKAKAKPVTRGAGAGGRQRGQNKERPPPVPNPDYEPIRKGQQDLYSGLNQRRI

Substance: FN18 (antibody)
geometric mean of relative fluorescence intensity [4]: 7 rfu
geometric mean of relative fluorescence intensity [5]: 1260 rfu
geometric mean of relative fluorescence intensity [6]: 7 rfu
geometric mean of relative fluorescence intensity [7]: 1260 rfu

Substance: I2C Fab (monospecific anti-CD3 Fab)
Kd [8]: 500 pM
Kd [9]: 130 pM
koff [9]: 0.0013 s⁻¹
kon [9]: 1.1e+07 M⁻¹ s⁻¹

Substance: OKT3 (antibody)
RU of Fab binding at 100 nM [10]: 3 RU

The next lines start with results.

Kd [1]: 13000 pM
koff [1]: 0.0028 s⁻¹
kon [1]: 220000 M⁻¹ s⁻¹
Kd [2]: 2700 pM
koff [2]: 0.003 s⁻¹
kon [2]: 1.1e+06 M⁻¹ s⁻¹
ratio KD(cy)/KD(hu) [3]: 5
Substance: SP-34 (antibody)

Kd [11]: 400 pM
Kd [12]: 500 pM
koff [12]: 0.002 s⁻¹
kon [12]: 4e+06 M⁻¹ s⁻¹
Substance: CODV-Fab 7G3 × I2C (bispecific antibody)
Activity EC50 (cytotoxic assay, THP-1 targets + primary human T cells) [13]: 0.02 µg/mL
